Assay results published in doi:10.1101/545921 (bioRxiv, 2019).

B1: Glycolytic glyceraldehyde-3-phosphate dehydrogenase of Arabidopsis thaliana (AtGAPC1), native / reduced (enzyme, UniProt P25858 1-338, looked up)
chain: MADKKIRIGINGFGRIGRLVARVVLQRDDVELVAVNDPFITTEYMTYMFKYDSVHGQWKHNELKIKDEKTLLFGEKPVTVFGIRNPEDIPWAEAGADYVVESTGVFTDKDKAAAHLKGGAKKVVISAPSKDAPMFVVGVNEHEYKSDLDIVSNASCTTNCLAPLAKVINDRFGIVEGLMTTVHSITATQKTVDGPSMKDWRGGRAASFNIIPSSTGAAKAVGKVLPALNGKLTGMSFRVPTVDVSVVDLTVRLEKAATYDEIKKAIKEESEGKLKGILGYTEDDVVSTDFVGDNRSSIFDAKAGIALSDKFVKLVSWYDNEWGYSSRVVDLIVHMSKA
B2: H2O2-oxidized AtGAPC1 (AtGAPC1-SO2H) (enzyme, Arabidopsis thaliana, UniProt P25858 1-338, looked up)
chain: B1 chain
modifications: sulfinic acid or sulfinate (-SO2H or -SO2-) at Cys149
B3: IAM-pretreated AtGAPC1 WT (WT-IAM) (enzyme, Arabidopsis thaliana, UniProt P25858 1-338, looked up)
chain: B1 chain
modifications: Cys149 alkylated by iodoacetamide (IAM)

Biological target: the molecule itself
Test: dynamic light scattering

Stoichiometry N, 4:
B1
B2
B3
